Reference: patent US10239925B2, “Peptides and combination of peptides for use in immunotherapy against ovarian cancer and other cancers” (IMMATICS BIOTECHNOLOGIES GMBH, priority 2015, dated 2019)

The substances below were run against HLA-A*02:01 (Homo sapiens, UniProt P04439, D140Y/D185E/D98H/E176V/E277Q/G131W/G231S/I119V/I121R/I166T/I218V/L300P/L318F/N151K/N90K/P208A/P217A/Q86G/Q94H/R138H/R169H/T345S) (assay: MHC binding assay (UV-ligand exchange, anti-β2m ELISA, peptide exchange yield)). Conditions: binding to HLA-A*02:01.
Procedure, shortened: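 Yield of stabilized complexes quantified via the β2m light chain in an ELISA (streptavidin capture, 100-fold diluted monomers, HRP anti-β2m 2 ug/ml at 37 °C, TMB, A450). The complexes come from UV-triggered replacement of a photocleavable ligand by the candidate peptide.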

Peptide exchange (MHC class I binding score, peptide exchange yield), “++++” (>75% = ++++):
585 (ALWDLAADKQTL; listed as Homo sapiens) [compound 585]
104 (STMEQNFLL; listed as Homo sapiens) [compound 104]
527 (FLLEPGNLEV; listed as Homo sapiens) [compound 527]
168 (KILDADIQL; listed as Homo sapiens) [compound 168]

Peptide exchange (MHC class I binding score, peptide exchange yield), “+++” (>50 = +++):
6 (VLVSDGVHSV; listed as Homo sapiens) [compound 6]
594 (IMLKGDNITL; listed as Homo sapiens) [compound 594]
465 (QLCDLNAEL; listed as Homo sapiens) [compound 465]
74 (ALLDPEVLSIFV; listed as Homo sapiens) [compound 74]
572 (ALADLIEKELSV; listed as Homo sapiens) [compound 572]
107 (FLQPVDDTQHL; listed as Homo sapiens) [compound 107]
208 (KISPVTFSV; listed as Homo sapiens) [compound 208]
281 (ILRESTEEL; listed as Homo sapiens) [compound 281]
138 (YQYPRAILSV; listed as Homo sapiens) [compound 138]
214 (FLLDLDPLLL; listed as Homo sapiens) [compound 214]
190 (FLSSLTETI; listed as Homo sapiens) [compound 190]
57 (TLAELQPPVQL; listed as Homo sapiens) [compound 57]
613 (RLLPPGAVVAV; listed as Homo sapiens) [compound 613]
367 (SLQNHNHQL; listed as Homo sapiens) [compound 367]
366 (RLLDMGETDLML; listed as Homo sapiens) [compound 366]
175 (YLFENISQL; listed as Homo sapiens) [compound 175]
346 (LLDSKVPSV; listed as Homo sapiens) [compound 346]
344 (YLQDQHLLLTV; listed as Homo sapiens) [compound 344]
223 (ALLENIALYL; listed as Homo sapiens) [compound 223]
556 (FLTDLEDLTL; listed as Homo sapiens) [compound 556]
106 (LLYDAVHIVSV; listed as Homo sapiens) [compound 106]
155 (RVANLHFPSV; listed as Homo sapiens) [compound 155]
16 (VLFQGQASL; listed as Homo sapiens) [compound 16]
295 (VLDRESPNV; listed as Homo sapiens) [compound 295]
20 (RMIEYFIDV; listed as Homo sapiens) [compound 20]
457 (SLLPGNLVEKV; listed as Homo sapiens) [compound 457]
370 (SLLQDLVSV; listed as Homo sapiens) [compound 370]
521 (MLLTKLPTI; listed as Homo sapiens) [compound 521]
357 (SMHDLVLQV; listed as Homo sapiens) [compound 357]
14 (AAYGGLNEKSFV; listed as Homo sapiens) [compound 14]
219 (KLSDIGITV; listed as Homo sapiens) [compound 219]
345 (VIWKALIHL; listed as Homo sapiens) [compound 345]
577 (VMFEDGVLMRL; listed as Homo sapiens) [compound 577]
181 (LLWAGTAFQV; listed as Homo sapiens) [compound 181]
163 (ALDEMGDLLQL; listed as Homo sapiens) [compound 163]
334 (TLTKVLVAL; listed as Homo sapiens) [compound 334]
578 (FLDPGGPMMKL; listed as Homo sapiens) [compound 578]
95 (SVIPQIQKV; listed as Homo sapiens) [compound 95]
103 (TLAEEVVAL; listed as Homo sapiens) [compound 103]
555 (YVLEGLKSV; listed as Homo sapiens) [compound 555]
29 (KMLGIPISNILMV; listed as Homo sapiens) [compound 29]
110 (FLSQVDFEL; listed as Homo sapiens) [compound 110]
486 (AVMESIQGV; listed as Homo sapiens) [compound 486]

Peptide exchange (MHC class I binding score, peptide exchange yield), “++” (>20% = ++):
273 (NLFQSVREV; listed as Homo sapiens) [compound 273]
377 (FLLDSSASV; listed as Homo sapiens) [compound 377]
148 (ALNPEIVSV; listed as Homo sapiens) [compound 148]
258 (ELAERVPAI; listed as Homo sapiens) [compound 258]
451 (LLLLDTVTMQV; listed as Homo sapiens) [compound 451]
232 (ALLEAQDVELYL; listed as Homo sapiens) [compound 232]
408 (VLDDSIYLV; listed as Homo sapiens) [compound 408]
565 (ALQETPTSV; listed as Homo sapiens) [compound 565]
580 (LLMENAERV; listed as Homo sapiens) [compound 580]
429 (GLVNDLARV; listed as Homo sapiens) [compound 429]
385 (SLLEQGLVEA; listed as Homo sapiens) [compound 385]
354 (LILEGVDTV; listed as Homo sapiens) [compound 354]
210 (LLLNAVLTV; listed as Homo sapiens) [compound 210]
393 (GLLDTQTSQVLTA; listed as Homo sapiens) [compound 393]
180 (FQIDPHSGLVTV; listed as Homo sapiens) [compound 180]
579 (NLMEMVAQL; listed as Homo sapiens) [compound 579]
31 (YLAPELFVNV; listed as Homo sapiens) [compound 31]
265 (LLFGGTKTV; listed as Homo sapiens) [compound 265]
372 (TMLLNIPLV; listed as Homo sapiens) [compound 372]
453 (KLLEATSAV; listed as Homo sapiens) [compound 453]
